Measured values taken from the nanobody polyreactivity screen of Harvey et al. (2022).

assay: yeast display, Sf9 membrane polyspecificity reagent, FACS + sequencing; frameworks hold sequencing errors
In short: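 Synthetic nanobody libraries on Saccharomyces cerevisiae BJ5465 were galactose-induced for 36–48 hours, stained 1 hour at 4 °C with 10% biotinylated, detergent-solubilized Sf9 membrane reagent and enriched on streptavidin microbeads. FACS then separated cells into low and high (top ~1%) gates by anti-HA (expression) and streptavidin (reagent binding) fluorescence. Genes were colony-PCR amplified, MiSeq 2 × 250 sequenced and CDR-length filtered. A clone's polyreactivity label is that of its gate of origin.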

Sequence	polyreactivity (PSR sort gate)
QVQLVESGGGLVQAGGSLRLSCDASGFTFYKNAMGWYRQAPGKERELVAAISSGGSTSYADSVKGRFTISRDNAKNTVYLQMNSLKPEDTAVYFCAADRFAFYGRYRGPYYYWGQGTQVTVSS	high polyreactivity
QVQLVESGGGLVQAGGSLRLSCAASGRIFHFYAMGWYRQAPGKERELVAAITSRTGNTYYADSVKGRFTISRDNAKNTVYLQMNSLKPEDTAVYYCAAKLVNALLHYRNWNHINYWGQGTQVTVSS	low polyreactivity
QVQLVESGGGLVQAGGSLRLSCAASGSTFQSNAMGWYRQAPGKERELVAAITVSAGSTYYADSVKGRFTISRDNAKNTVYLQMNSLKPEDTAVYFCAANRYVYPSYRFDYWGQGTQVTVSS	low polyreactivity
QVQLVESGGGLVQAGGSLRLSCAASGITFYRYTMGWYRQAPGKERELVAAITWSGGSTYYADSVKGRFTISRDNAKNTVYLQMNSLKPEDTAVYYCAVYLPYSQRYVHYYYWGQGTQVTVSS	high polyreactivity
QVQLVESGGGLDQAGGSLRLSCAASGSIFEPYDMGWYRQAPGKERELVASISRGGSTYYADSVKGRFTISRDNAKNTVYLQMNSLKPEDTAVYYCAADPYYYSSGYYYWGQGTQVTVSS	low polyreactivity
PVQIVESGGGLVQAGGRLRLSCAASGSILVPYAMGWSRQAPGKERELVADISIRTGSTYYADSVKGRFTISRDNAKNTVYLQMYSLKPEETAVYYCNAAHRKPYTGLYYWGQGTQVTVSS	high polyreactivity
QVQLVESGGGLVQAGGSLRLSCAASGFTYRPNAMGWYRQAPGKERELVASIRYSGGSTYYADSVKGRFTISRDNAKNTVYLQMNSLKPEDTAVYYCAAVLYSWMRLGSTYTYDYWGQGTQVTVSS	low polyreactivity
QVQLVESGGGLVQAGGSLRLSCAASGNTFVLYAMGWYRQAPGKERELVAAINNGGSTYADSVKGRFTISRDNAKNTVYLQMNSLKPEDTAVYYCAARYQVGVYWRRYYWGQGTQVTVSS	high polyreactivity
QFQLVESGRGLVQAGGSLRLSCAASVRIFLWYAMGWYRQAPGKERELVAVIRGRGDSTSYADSVKGRFTISRDNAKNTVYLQMNSLKPEDTAVYYCADVGRYDYNYWGQGTQVTVSS	low polyreactivity
QVQLVDSGGGLVQAGGSLRLSCAASGSTFTYYAMGWYRQAPGKERELVAAIRNSDGTTYYADSVKGRFTISRDNAKNTVYLQMNSLKPEDTAVYYCAAGPRGRWSTYDYWGQGTQVTVSS	low polyreactivity
QVQLVESGGGLVQAGGSLRLSCAASGRIVRSYTMGWYRLEPGKERELVSDITSGTSTSYADSVKGRFTISRDNAKNTVYLQINSLKPEDTAVYYCNADVSNYFWNWPYQGMDYWGQGTQVTVSS	low polyreactivity
QVQRVESGGGLVQAGGSLRLSCAPSGRTFGYYAMGWYRQAPGKERELVAAISRGGRTNYADSVKGRFTISRDNAKNTVYLQMNSLQPEDTAVYYCAKSGTIPRYTASYSLLDYWGQGTQVTVSS	low polyreactivity
QVQLVESGGGLVQAGGSLRLSCAASGYTFYYNTMGWYRQAPGKERELVARINSAGRTNYADSVKGRFTISRDNAKNTVYLQMNSLKPKDTAVYYCAADGPANPDELKVNDFDYWGQGTQVTVSS	high polyreactivity
QVQLQESGGRQVQAGGSLRLSCAASGSNSYASGMGWYRQAPRKEREFVARIDPGAITNYADSVKGRFTISHDNAQNTVYLQMKSLKPEDNAVYYCAARVSTTDSRRILRKYLYYVHFDYWGQGTQLTVSS	high polyreactivity
QVQLVESGGGLVQAGGSLRLSCAASGFIFSYYAMGWYRQAPGKERELVATITSGGSTNYADSVKGRFTISRDNAKNTVYLQMNSLKPEDTAVYYCNALPGVSHTQYDRVGYWGQGTQVTLSS	high polyreactivity
QVQLQESGGGLVQAGGSLRLSCAASGTITVLYKMGWFRQAPGKEREFFASINYGTSTYYADSVKGRFTVSRDSAKNTVYLQMISLKPEDTAVYYGAAAYRWQDVYRYWGQVTQVTVSS	low polyreactivity
QVQLVESGGGLVQAGGSLRLSCAASGRTIYYNAIGRYIQAPVKEREFVATITCSGGSTYADSVKGRFTISRDNAKNTVYLQMNSLKPEDTAVYYCNADFSYTSEDQRALFTNVYYWGQGTQVTVSS	low polyreactivity
QVQLQESGGGLVQAGGSLRQSYAASGYIFPSLAMGWYRQAPGKESEFVAAIGRGSTNNYADSVKGRFTISRDNAKNTAYQQMNSLKPEDTAVYYCAAAASPLTRHLYWGQGTQVTVSS	low polyreactivity
QVQLVESGGGLVQAGGSLRLSCAASGIIFYYYAMGWYRQAPGKESELVADITYSGGSTYYADSVKGRFTISRDKAKNTVYLQMNSLKPEDTAVYYCAARVTVSHWPYYYDSSDYGGQGTQVTVSS	low polyreactivity
QVQLVESGGGLVQAGGSLRLSCAASGIISYLYAMGWYRQAPGKERELVAVIRTSDAITYYADSVKGRFTISRDNAKNTVYLQMISLKPEDTAVYYCAAEDVYEYDYWGQGTQVTVSS	high polyreactivity
QVQLVESGGRLVQAGGSLRLSCAASGRIFGYYAMGWYRQAPGKERELVAAISSGGNTYYADSVKGRFTISRDNAKNTVYLQMNSLKPEDTAVYYCNEVYVGWQYGYDYWGQGTQVTVSS	low polyreactivity
QVQLVESGGGLVQAGGSLRLSCAASGISFYEYGMGWYRQAPGKERELVAAITFGGGSTYYADSVKGRFTISRDNAKNTVYLQMNSLKPEDTAVYDCAADRVYWGRVQGYYWGQGTQVTVSS	low polyreactivity
QVQLVESGGGLVQAGGSLRLSCAASGNTFKGYAMGSYRPAPGKERELVAAISWSGSSTYYADSVKGRFTISRDNAKNTVYLQMNSLKPEDTAVYYCAKAFKYTSPRRPYDYWGQGTQVTVSS	high polyreactivity
QVQLVESGGGLVHAGGSLRLSCAASGFIFYGNAMGWYRQAPGKERELVAAITWSSGSTYYADSVKGRFTISRYNAKNTVYLQMNSLSPEDTAVYYSNSEWSAKRPYPSRYYFNLGYWGQGTQVTESS	high polyreactivity
QVQLVESGGGLVQAGGSLRLSCAPSGGIYLYYVMGWYRQAPGKERELVADISGDDSTNYADSVKGRFTISRDNAKNTVYLQMNSLKPEDTAVYYCAAVPGLFYLPYEYWGQGTQVTVSS	low polyreactivity
QVQLVESGGGLVQAGGSLRLSCAASGFIFPWNAMAWYRQAPRKERELVAAISFSGGSTYYADSVKGRFTISRDNAKNTVYLQMNSLKPEDTAVYYCAKRTWDLRRTRHYYWGQGTQVTVSS	low polyreactivity
QVQLVESGGGLVQAGGSLRLSCAASGLTLGSYAMGWYRLAPGKERELVAAISRRSGRTYYADSVKGRFTISRDNAKNTVYVQMNSLKPEDTAVYYCNRGYTAQVYTEFDYWGHGTQVTVSS	low polyreactivity
QVQLVESGGGLVQAGGSLRLSCAASGFTFEKYAMGWYRQAPGHERELVASISWSGGRTRYADSVKGRFTISRDNAKNTVYLQMNSLTPEDTAVDYCAASYRYFGRSTVRYDYWGQGTQVTVSS	high polyreactivity
QVQLVESGGGLVQAGGSLRLSCAASGNTFSISAMGWYRLAPGKERELVAAISLSGGSTYYADSVKGRFTISRDNAKNTVYLQMNSLKPEDTAVYYCAADVFTARRRYDYWGQGTQLTVSS	low polyreactivity
QVQLLESGGGLVQAGGSLRLSCAASGFTFWYYAMGWYRQAPGKEREFVASISWNGGRTYYADSVKGRFTISRDNAMNTVYLQMNSLKPEDTAVYYCATRVIYSFTDFKGDYWGQGTQVTVSS	high polyreactivity
